These results are taken from a protein production outcome set (Wang et al. 2014).

The series is described as follows: label from the status in PepcDB records.
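Further: failed if final PepcDB status was selected cloned or expressed and not failed if soluble or beyond.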

Turning to “MKARAILLASVLLVGCQASKHDGTVEQRAQSLSAAGQGEAGKFTSQARWLDDGTFYAQDQDLWTSIGDELKMGIPDNPRIREQKQKYLRNKSYLHDVTLRAEPYMYWIAGQVKKRNMPMELVLLPIVESAFDPHATSGANAAGIWQIIPSTGRNYGLKQTRSYDARRDVVASTTAALDMMQRLNKMFDGDWLLTVAAYNSGEGRVMKAVKANRSRGKPTDFWSLSLPHETKIYVPKMLALSDILKNSKRYGVKLPTADESRALARVRLDSPVDISQLADMAGMPVSKLKTFNAGVKGSTLGASGPKYVMVPQKHAAQLRESLASGDIAAVQPTQLADNTPLTSRSYKVRSGDTISGIASRLGVTTRDLQQWNNLRGSGLKVGQNLVIGAGSSAQRLANNSDSITYRVRKGDSLSSIAKRHGVNIRDVMRWNSDTDNLRPGDQLTLFVKNNDRPES”, the protein production entry was “failed”. With “MKCIESLGKTVDEAVKKALSELKVTEDKVEIKVIDEGSKGLLNIIGKREAKVKVTLKTDYIDEVRTFLRKVFEDMNLVIEIKIKEIGNDLFVNLFGKNIGLLIGYRGETLDSLQYLVNLVANKNHADGKYKRVILDTENYRAKREETLKRLALKISKRVKEEKSPFKLEPMNPYERRVIHSALQNDKYVRTYSEGEEPHRRVVVELKKS”, the protein production entry is recorded as “not failed”. For the sequence “MKCYLTGCIAGPLAFSEDLELIDYEPFPVDEIPGRLAESQMGGVSPEERIMLERLTPEYDEVVVEASPSPEYAGFRNLRFEVPSRAGIHLRENLEDILAEILDMPAGDFIHDALMSVARERLRESLRETDRFIIQSINALDELDEETGKLIERLREWYSLHFPELDGIKSHEQYVELIAEYGDRDQILKNFRMDVDESLGSDITSEDLHILRGLAESIRGLQRLREETERYIDIKMEKLAPNLRALAGSNVGARLIAHAGGLRELAMLPSSTIQVLGAEKALFRHLKSGAKPPKHGVIFQHPSIRSSPWWIRGKVARLLAGKIAIAVRKDVFSREFDPGIVESFNERFEAIKSNNPKPPARKKGFRKKRK”, the protein production result is on record as “failed”. For “MKDGEAATGQAASRPKRADARRNEKNLLDAAAAVFVRSGVEAPVRDIAAEAGVGTATIYRHFPTRADLIIGVYRHQVEACAEAGPALLASSPTPYAALAGWIDLFVDFLVTKHGLAAVLQSDSAGFETLHAYFLDRLVPVCTDLLAAATDSGEIDTDVPPLALMRGVGNLCIGAETPNPSYDARQLVRILIAGLRAAD”, the protein production entry is reported as “not failed”.

Take “MKDILWLMQKTLSVLLKNKKGLLIIISLPIIGTLISFSIYGNAGQGALNIGVINKENESIANDTVKFLEEINHVKVSKVKESEVEDKLTSKKLDGVITLQSGFSESVREGKPSNIEISSIKGDQVTAFIKSYLYNYIDNVAAISKVAGTDQSAFDTMYAGYQKSSFKVKTETLEDTSKNKDMTNQTMGYLIMFMLFSAVNLSGYILKEKENRTYFRLLSTPIDGKKFILSNVGVNMIILTVQIMITILFLTNVFHTNINMPFIVMVGVLMIFALIAIGMSLVIVAFSKNSSSANAMQNMVIVPTCLLAGCYFPYDIMPSAVQKVANFLPQRWLLDTVSKLQQGIPFSELYLNILILFAFAIAFFLIAIYKFGRNNDARNFV”: the protein production entry is “failed”. Regarding “MKDPLLNSLIYVSRYYGLANSPEALVNGLPLSDGKLTPFLLPRAAERAGLVAKENRAELEKISSLILPAILVLKGGDSCVLNSINMETREAEVTTLESGMVPISIPLEDLLEQYTGRYFLVKKQFR”, the protein production entry was “not failed”. On to “MKDSDKEKENGKMGCWSIEHVEQYLGTDELPKNDLITYLQKNADAAFLRHWKLTGTNKSIRKNRNCSQLIAAYKDFCEHGTKSGLNQG”, for which the protein production result is reported as “not failed”. As for “MKEDRVVFIFGPTAVGKSNILFHFPKNKAEIINVDSIQVYKEFNIASSKPSKNLMKHIKHHLVDFLDPEKDYTIGIFYEQALKIVKEIRQKKKIPIFVGGTAFYFKHLKDGFPSTPLVTSKIRIYVNNLLELKGKSYLLKELKNVDPIRFNMLNKNDIYRIKRSLEVYYQTGIPISQFQKKQSSEFKNIVIIGLKRSFEDLKTRISIRINEMLNSGLLSEIKGLFSKGYNENTPAFKGIGYNEFLLWKSRPCYGLNDIIGLINKNSFLYAKRQMTFFAKISDVLWLHPEDDLDNILNLIFKVDKEI”, the protein production result is given as “failed”.

As for “MKEEIVNERQCETEDEKIDIQQLLFKYIIHWPWFVGAVLVCLIGAWIYLRMATPVYNISATVLIKDDKKGGNTGSMVGLEELGLSGLISSSQNIDNELEVLRSKTLVKEVINLLNLYVSYTDEDGFPSKNMYKTSPVLVSLTPQEAEKLTDPMVVEMALYGEGGLEVNVTVGDKEYQKHFEKLPAVFPMDEGTLAFFQSPDSLSLKKDTMEASSNIRHITAKIKSPMKVARAYCENLKIEPTSKTTSVAVISLKNSSLQRGQDFINQLLEMYNRNTNNDKNEIAQKTAEFIDERINIISKELGSTEANLENFKRNAGITDLTSEAQIALTGNAEYEKKRVENRTQISLIEDLRKYIRGNEYEVLPGNIGLQDPGLVATIERYNEMLVERKRLLRTSTENNPTIINLDTSIRAMKSNVQATLDGSLKGLLITKADLEREASRFSRRISDAPGQERQFVSIARQQEIKAGLYLMLLQKREENAIALAATANNAKIIDEAIADDIPVSPKRRMIYLIALVLGIGIPVGIIYLIGLTKFKLEGRADVEKLTTIPIVGDIPLTDEKNEKDGSIAVFENQNNLMSETFRNIRTNLQFMLQNDKKVILVTSTVSGEGKSFISANLAISLSLLGKKVVIVGLDIRKPGLNKVFRLSTKEKGITLYLANPETDLMSLVQPSDINQNLYILPGGTVPPNPTELLARDGLDKAIEILKKNFDYVILDTAPVGMVTDTLLIGRVADLSVYVCRADYTHKVEYTLINELAEEKKLPNLCTVINGVDLKRRKYGYYYGYGKYGKYYGYGKRYGYGYGYGQEKGAKS”, the protein production result was “failed”. Regarding “MKEELKREYERIKDRISPEEFEELIEKKKEELGDIGFMDDLTIASTVVDDILKEKNTMLSEKPEHRMDTISKLEEGAETPVTGRVMKISSPRTFTTRKGREGKLANVIIADDTGELRAVFWTENIKLLKKFREGDVIRIKDVNIRGGFGGRKEAHLMPRSTVEVLDPEDYPEFPEYREEITPIGDLVEDDEVNVIARITGVSRVRTFERDGREGRFISLDIMDATGSTTYTLWNNDVNLVEELGLKEGDAVKILWAQPRRRDDKVTLTHTSLTRVVPGEYDVPEFREELVKIGDLHEMRNVTVMGLVTKVNDPVEFERNDGTTGSVKSIEIADDTGSARVTLWDEDTRIKINKGDIIRISGANVEFDDFNQSYRINTNFNTRITLNPESDGALLKVLEEYREQMRPMKISEILEMEDEGEEVDVVGRIFSLSDPREFEREDGTGIVRSMELADETGKIRISLWDEKAEKPMNIGDAVRIENARIRLGLYSVELSAGRTTRIVNPLPEDMEDLPSFEELEEMLYQTKKIADLEEDDRNIRIIARVVDLFEPREFQRGDGTPGLVRTAEFADDTGSIRASLWDDAAEKPLSIGDPVKIENPRVVFRDDMGGGRLETQHRKQFKD”, the protein production entry is listed as “failed”.

“MKEFRKILEDKAFFFTTLYILISFLVFKIFPDVFAVIVLMVFFTLLLDPVIRFLEKLKFGKYFSRVAALLLFFFVMVYSLYMIIPPVFNEFGSFIEFMTKVFESKIWKDYIKSPELMPVFDKIMNFLEPKLTDFLNYVFSLVTTNFVSVTTIIVFTLFGLGYTVFYIREIASFFVLIYPKSVRAEAREFFRDVYASMGRYIRVIFINAVIIGLSYWIVFEAFNLKYSAIISLWAFVTNFIPIVGVVLEYIPVLLFSLTLGVKGVLLIALFAILIHAVAFVVFIQLMKGLEKLNPVYIILSILFFGKLFGLFGSFVGVPLALFFKVFWRKFLRPLFEAG”: the protein production entry is recorded as “failed”. On to “MKEGIELNTKKRIIGLDFARALAMFGMLLVNFMVITGAEGNGPPFLITLMSLFEGRASALFVILAGIGISLMTRSSVARNEKIKISNSRKIIWKRALFLFILGLLLYVMEWTGDILHYYGVYLFVAALLITVRKKALLFLSIIILLLAQSLQLTFNAFEGWGGPTPFINYVDFWTVNGFLRNLFFNGYHPFSHRFSFFLIGMIIGRLDLHNKKIRDRLLLLGITFTILIELLSKGLTYYFIPHIGKAAATFLFNTGPVLPNVLYILSATGSAIAILILCLYITEKYENNWFVTSIIQTGQLTLTHYVSHVFIGIGTLILFNRMEHQTLLFVLLFATVFFIFSILFSVLWRKKFSRGPIEWIMRKLAS”, for which the protein production entry is “not failed”. For “MKEICMLLVAVILWGTAIAPTKWALESIQPFTLLFIRLFFAGGICMIFSFKELQKSVVHKKVPWKRMSLLAFTGVAGYFMFTSYGISLTSGLHVSIIDAALPLVTILFSALFLKEEIRLNYWIGIILGAIGVLFITIPSKSANQEVSLIGDILILLSTFLFAFYTVLLKRPKQEQYLSNEVFTTLTLIIGAVILLPFALVEIFYYGLPKVETWKTVLSVIYLVIGATILAYWFWNKALERVSASVSGLYLNALPLISIITSIILLNESLTWRVIMGASLVLIGVGWADKQKLCNLLKGNKVENRDC”, the protein production entry is recorded as “failed”.

On to “MKEKISEKEYKALIRKIGKEHFDGEKEEYGDGTVGVWTYELRKYKLKPPVKVKYVTQEQFQEYKDSNNQRLIKIETTLAAQGEQIRIQVEQIKELQIEQKAQGETLKLILQTLQKMSDRLDKMEVKMDKMEEKMDKMEGKIDKIENRMDKMEVKMDKMEKRIDKLESKLEHHHHHH”, for which the protein production result was “failed”. With “MKEKLWTTTFVVNMLLNFIFYLVFYLPTVVIGTMAMERYHASASIAGILSGIFIVGGFIARLWAGNNMKRLGAKKLLYIGTLIYFLLTFAYFFVHSVVLLLILRLVHGLGFGIAATASGTLAGAIVPSSRRGEGIGYYALSVTLSSAVGPFLSMFLYRTSGFYSLIWLSALLLFIALVGIFFIHVEKTTDSSNSVDNKVHKKFAWSNYFEKEALPISLIAFLIGISYSSILSFMDAYARNIHLSEAASFFFLVYAITVLLSRPITGRVFDGFGDNFVMYPTYLFFALGLLLIGFAHSGWMLLLAAIFIGLGYGSFSPFGQAIAIRNSEAHRLGITTSTFFGFMDMGVGFGPFILGMFMPLLGYRNLYFASAILALLIAVIYHFVHGRHAKREN”, the protein production entry is recorded as “failed”. Turning to “MKELIKEHQKDINPALQLHDWVEYYRPFAANGQSANYIPALGKVNDSQLGICVLEPDGTMIHAGDWNVSFTMQSISKVISFIAACMSRGIPYVLDRVDVEPTGDAFNSIIRLEINKPGKPFNPMINAGALTIASILPGESAYEKLEFLYSVMETLIGKRPRIHEEVFRSEWETAHRNRALAYYLKETNFLEAEVEETLEVYLKQCAMESTTEDIALIGLILAHDGYHPIRHEQVIPKDVAKLAKALMLTCGMYNASGKYAAFVGVPAKSGVSGGIMALVPPSARREQPFQSGCGIGIYGPAIDEYGNSLTGGMLLKHMAQEWELSIF”, the protein production result is “not failed”. Then “MKELQEKNEQITLLVEMSDIMLACGSQEELSEVMAKYSQRLLQFSSGYLFIMHPSKNYLEKAASWGNPHPHDLTFTPEQCWAIRLGRIHYAGSSRIELMCSHMMFDEQPELSLLCVPLMAQNDIYGLLYLEVGLKFDENQQLLITAFAELTALALANVRLRENLRYQSIR”, with “failed”; and “MKEPPMTKTVFHLGVTEADLNGATLAIIPGDPARVQKIAELMDNPVFLASHREYTVYRAELDGQSVVVCSTGIGGPSTSIAVEELAQLGVRTFLRVGTTGAIQPHVNVGDMIVTTGSVRLDGASLHFAPMEFPAVPDFDVATAMKAAAQESGATVHMGVTASSDTFYPGQERYDTFTGRVVRRFQGSMKEWQDMGVLNFEMESATLLTMCASSGLKAGCVAGVIINRTQKEIPDHATLKETEARSIKVVVEAARKMLK”, with “not failed”; and “MKERIVGQSGELFCFGQMPVWKVENLPEVLLSGYSSEEGEWVCLNVLQGDVEVRAPDGSAEVWSADGGDCVFAPQQVFSVKPKTDDAEIRLSLYCAAADYFHKKYGMSATHSAVAAARDTVPAGRALDMGCGQGRNALFLGLKGFEVTAVDHNPAALANVAELAEAEGLNVRTLEYDLNAAALQGEFDYIVATVVLMFLMPQRVPDVIADMQAHTAAGGYNLIVSAMDTADFPCPMPFPFKFKEGELKDYYRDWELVEYKEELGSMHAKDENGNPIRFKFVTMLAKKPELEHHHHHH”, with “failed”.
